For experiment [1], the target named is T1, biotin-labeled T-47D culture supernatant (MUC1) (human, UniProt P15941 24-1097, limits assumed, biotin-labeled with Sulfo-NHS-Biotin).
T1 construct: The whole concentrated supernatant was biotinylated and put on the chip
As to the kind of experiment: SPR, Biacore, biotin-labeled T-47D culture supernatant on sensor chip SA. For orientation: SPR reads the build-up and loss of mass on a sensor chip optically.

Experiment [2] concerns the target T2, Biotin-Tn(DT*R)-100 (N-terminal Biotin-PEG-linker; Thr(GalNAcα) in each Asp-Thr-Arg (5 sites); C-terminal amide (NH2)).
T2 construct: also called Compound No. 21; Compound 21
As to the kind of experiment: SPR, Biacore T100, Biotin-Tn(DT*R)-100 on sensor chip SA.

T2 sequence (peptide, as listed by the source limits assumed): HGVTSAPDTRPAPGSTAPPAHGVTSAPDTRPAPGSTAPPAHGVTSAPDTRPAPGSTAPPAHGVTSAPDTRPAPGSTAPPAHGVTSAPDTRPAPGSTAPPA
T1 sequence (P15941 24-1097 limits assumed): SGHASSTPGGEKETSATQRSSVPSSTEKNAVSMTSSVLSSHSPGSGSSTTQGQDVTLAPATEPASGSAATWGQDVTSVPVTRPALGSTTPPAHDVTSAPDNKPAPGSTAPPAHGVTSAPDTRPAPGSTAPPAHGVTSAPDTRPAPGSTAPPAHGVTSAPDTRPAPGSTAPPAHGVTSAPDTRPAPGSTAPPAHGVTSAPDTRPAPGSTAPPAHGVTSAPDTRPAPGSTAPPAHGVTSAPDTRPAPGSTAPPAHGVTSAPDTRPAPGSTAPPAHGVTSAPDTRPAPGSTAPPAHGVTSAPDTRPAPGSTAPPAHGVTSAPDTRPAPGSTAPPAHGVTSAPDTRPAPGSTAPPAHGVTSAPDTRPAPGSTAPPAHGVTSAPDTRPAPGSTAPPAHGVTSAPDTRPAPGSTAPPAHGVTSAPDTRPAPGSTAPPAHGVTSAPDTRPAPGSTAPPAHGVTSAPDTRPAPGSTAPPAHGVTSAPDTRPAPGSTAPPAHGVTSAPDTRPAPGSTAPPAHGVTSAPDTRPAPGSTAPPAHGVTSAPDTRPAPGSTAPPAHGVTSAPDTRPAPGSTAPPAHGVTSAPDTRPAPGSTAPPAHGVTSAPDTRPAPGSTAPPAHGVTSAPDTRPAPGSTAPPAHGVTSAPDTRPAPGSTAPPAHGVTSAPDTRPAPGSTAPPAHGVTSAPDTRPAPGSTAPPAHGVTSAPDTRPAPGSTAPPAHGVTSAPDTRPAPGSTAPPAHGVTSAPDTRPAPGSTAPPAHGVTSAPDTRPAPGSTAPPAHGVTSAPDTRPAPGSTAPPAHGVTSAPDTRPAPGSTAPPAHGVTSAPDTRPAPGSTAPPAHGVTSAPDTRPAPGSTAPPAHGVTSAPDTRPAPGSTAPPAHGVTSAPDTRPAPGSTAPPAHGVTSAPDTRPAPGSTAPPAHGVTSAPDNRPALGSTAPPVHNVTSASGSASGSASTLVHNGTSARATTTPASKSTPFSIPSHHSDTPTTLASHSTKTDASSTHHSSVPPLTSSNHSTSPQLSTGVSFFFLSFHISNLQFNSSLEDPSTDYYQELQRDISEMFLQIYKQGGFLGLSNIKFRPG

B1: PankoMab (antibody, V domains shown)
VH: EVQLVESGGGLVQPGGSMRLSCVASGFPFSNYWMNWVRQAPGKGLEWVGEIRLKSNNYTTHYAESVKGRFTISRDDSKNSLYLQMNSLKTEDTAVYYCTRHYYFDYWGQGTLVTVSS
VL: DIVMTQSPLSNPVTPGEPASISCRSSKSLLHSNGITYFFWYLQKPGQSPQLLIYQMSNLASGVPDRFSGSGSGTDFTLRISRVEAEDVGVYYCAQNLELPPTFGQGTKVEIKR
What is called Kd is the free concentration of one partner at which half of the binding sites on the other are occupied at equilibrium, for simple one-to-one binding. Lower therefore signals tighter binding. What is called koff is the first-order rate constant of dissociation. The low end stands for a long-lived complex, the high end for a short-lived complex. The term kon denotes the second-order rate constant of association. Take B1: in experiment [1], the dissociation constant Kd came out at 0.1 µM, the koff came to 0.045 s⁻¹ and the kon was determined as 440000 M⁻¹ s⁻¹. In experiment [2], this molecule had a dissociation constant (Kd) of 1.5 µM, an off-rate (koff) of 0.19 s⁻¹ and a kon of 120000 M⁻¹ s⁻¹.

These data come from patent US20120040375A1 (NATIONAL UNIVERSITY CORPORATION HOKKAIDO UNIVERSITY, published 2012).
